59 variants from the MegaScale stability set (Tsuboyama et al. 2023) can be followed below.

B1: EEHEE_rd4_0003 (parent)
chain: KKVTINGVEIKFNNPEEAVKFALELAKRLNLRIEFHGDQIKIE

Variants of B1 are the subject of the data set. The data set is described as follows: folding stability dG (cDNA display proteolysis); higher = more stable. Conditions: PBS, room temperature.
As for KKVTINGVEIKFNNPEEAVKFALELAYRLNLRIEFHGDQIKIE, the “folding stability dG” value stood at 2.44 kcal/mol.

As to KKVTINGVEIKFNNMEEAVKFALELAKRLNLRIEFHGDQIKIE, the “folding stability dG” value was determined as 2.97 kcal/mol.

Take KKVTINGVEIKFNMPEEAVKFALELAKRLNLRIEFHGDQIKIE: the “folding stability dG” value was determined as 2.38 kcal/mol.

Take KKVTINGVEIKFNLPEEAVKFALELAKRLNLRIEFHGDQIKIE: the “folding stability dG” value was 2.56 kcal/mol.

Turning to KKVTINGVEIKFNKPEEAVKFALELAKRLNLRIEFHGDQIKIE, the “folding stability dG” value was 2.35 kcal/mol.

On to KKVTINGVEIKFNSPEEAVKFALELAKRLNLRIEFHGDQIKIE, for which the “folding stability dG” value amounted to 2.93 kcal/mol.

Regarding KKVTINGVEIKFNNPEEAVKFALELAKRLNLRIEFHDDQIKIE, the “folding stability dG” value stood at 2.45 kcal/mol.

Consider KKVTINGVEIKFNNPEEAVKFALELAKRLNLRIEFHFDQIKIE, for which the “folding stability dG” value was determined as 2.48 kcal/mol.

Regarding KKVTINGVEIKFNNPEEAVKFALELAKRLNLRIEFHRDQIKIE, the “folding stability dG” value is 2.29 kcal/mol.

Regarding KIVTINGVEIKFNNPEEAVKFALELAKRLNLRIEFHGDQIKIE, the “folding stability dG” value amounted to 3.41 kcal/mol.

Regarding KNVTINGVEIKFNNPEEAVKFALELAKRLNLRIEFHGDQIKIE, the “folding stability dG” value is 2.48 kcal/mol.

Take KMVTINGVEIKFNNPEEAVKFALELAKRLNLRIEFHGDQIKIE: the “folding stability dG” value amounted to 2.83 kcal/mol.

As to KFVTINGVEIKFNNPEEAVKFALELAKRLNLRIEFHGDQIKIE, the “folding stability dG” value came to 2.8 kcal/mol.

Turning to KKVTINGVEIKFNNPEEAVKFALELAKTLNLRIEFHGDQIKIE, the “folding stability dG” value came to 2.2 kcal/mol.

In the case of KKVTINGVEIKFNNPEEAVKFALELAKVLNLRIEFHGDQIKIE, the “folding stability dG” value is 2.36 kcal/mol.

As to KKVTINGVEIKFNNPEEAVKFALELAKLLNLRIEFHGDQIKIE, the “folding stability dG” value is 2.57 kcal/mol.

For the variant KKVTINGVEIKFNNPEEAVKFALEHAKRLNLRIEFHGDQIKIE, the “folding stability dG” value was determined as 1.48 kcal/mol.

For KKVTINGVEIKFNNPEEAVKFALEVAKRLNLRIEFHGDQIKIE, the “folding stability dG” value turned out to be 2.24 kcal/mol.

Take KKVTINGVEIKFNNPEEAVKFALERAKRLNLRIEFHGDQIKIE: the “folding stability dG” value is 0.955 kcal/mol.

Consider KKVTINGVEIKFNNPEEAVKFALEYAKRLNLRIEFHGDQIKIE, for which the “folding stability dG” value worked out at 2.72 kcal/mol.

As to KKVTINGVEIKFNNPEEAVKFALEPAKRLNLRIEFHGDQIKIE, the “folding stability dG” value was -0.052 kcal/mol.

In the case of KKVTINGVEIKFNNPEEAVKFALELAKRLNLRIEFHGKQIKIE, the “folding stability dG” value turned out to be 2.15 kcal/mol.

As to KKVTINGVEIKFNNPEEAVKFALELAKRLNLRIEFHGTQIKIE, the “folding stability dG” value was determined as 2.29 kcal/mol.

As to KKVTINGVEIKFNNPEEAVKFALELAKRLNLRIEFHGVQIKIE, the “folding stability dG” value came out at 2.23 kcal/mol.

With KKVTINGVEIKFNNPEEAVKFALELAKRLNLRIEFHGSQIKIE, the “folding stability dG” value is 2.32 kcal/mol.

Take KKVTINGVEIKFINPEEAVKFALELAKRLNLRIEFHGDQIKIE: the “folding stability dG” value was determined as 2.59 kcal/mol.

Consider KKVTINGVEIKFANPEEAVKFALELAKRLNLRIEFHGDQIKIE, for which the “folding stability dG” value was found to be 2.8 kcal/mol.

For the variant KKVTINGVEIKFVNPEEAVKFALELAKRLNLRIEFHGDQIKIE, the “folding stability dG” value was found to be 2.46 kcal/mol.

For the variant KKVTINGVEIKFFNPEEAVKFALELAKRLNLRIEFHGDQIKIE, the “folding stability dG” value was determined as 2.54 kcal/mol.

Turning to KKVTINGVEIKFENPEEAVKFALELAKRLNLRIEFHGDQIKIE, the “folding stability dG” value is 2.59 kcal/mol.

Consider KKVTINGVEIKFNNPEEAVKFALELAKRLNLRSEFHGDQIKIE, for which the “folding stability dG” value came out at 0.908 kcal/mol.

With KKVTINGVEIKFNNPEEAVKFALELAKRLNLRPEFHGDQIKIE, the “folding stability dG” value came out at 1.29 kcal/mol.

For the variant KKVTINGVEIKFNNPEEAVKFALELAKRLNLRGEFHGDQIKIE, the “folding stability dG” value came to 0.975 kcal/mol.

Consider KKVTINGVEIKFNNPEEAVKFALELAKRLNLRTEFHGDQIKIE, for which the “folding stability dG” value worked out at 1.31 kcal/mol.

With KKVTINGVEIKFNNPEEAVKFALELAKRLYLRIEFHGDQIKIE, the “folding stability dG” value worked out at 2.42 kcal/mol.

With KKVTINGVEIKFNNPEEAVKFALELAKRLPLRIEFHGDQIKIE, the “folding stability dG” value was determined as 1.82 kcal/mol.

On to KKVTINGVEIKFNNPEEAVKFALELAKRLNLRIEKHGDQIKIE, for which the “folding stability dG” value stood at 1.78 kcal/mol.

KKVTINGVEIKFNNPEEAVKFALELAKRLNLRIEYHGDQIKIE: the “folding stability dG” value came out at 2.41 kcal/mol.

As for KKVTINGVEIKFNNPEEAVKFALELAKRLNLRIEIHGDQIKIE, the “folding stability dG” value stood at 2.58 kcal/mol.

For the variant KKVTINGVEIKFNNPEEAVKFALELAKRLNLRIENHGDQIKIE, the “folding stability dG” value was found to be 1.46 kcal/mol.

Consider KKVTINGVEIKFNNPEEAVKFALELAKRLNLRIEFHGDQKKIE, for which the “folding stability dG” value amounted to 1.5 kcal/mol.

On to KKVTINGVEIKFNNPEEAVKFALELAKRLNLRIEFHGDQPKIE, for which the “folding stability dG” value came to 1.24 kcal/mol.

In the case of KKVTINGVEIKFNNPEEAVKFALELAKRLNLRIEFHGDQAKIE, the “folding stability dG” value turned out to be 1.49 kcal/mol.

Regarding KKVTINGVEIKFNNPEEAVKFALELAKRLNLRIEFHGDQSKIE, the “folding stability dG” value came out at 1.43 kcal/mol.

Turning to KKVTINGVEIKFNNPEEAVKFALNLAKRLNLRIEFHGDQIKIE, the “folding stability dG” value came out at 2.35 kcal/mol.

As for KKVTINGVEIKFNNPEEAVKFALHLAKRLNLRIEFHGDQIKIE, the “folding stability dG” value came out at 2.23 kcal/mol.

Regarding KKVTINGVEIKFNNPEEAVKFALVLAKRLNLRIEFHGDQIKIE, the “folding stability dG” value came to 2.35 kcal/mol.

As for KKVTINGVEIKFNNPEEAVKFALILAKRLNLRIEFHGDQIKIE, the “folding stability dG” value is 2.49 kcal/mol.

Consider KKVTINGVEIKFNNPEEAVKFAAELAKRLNLRIEFHGDQIKIE, for which the “folding stability dG” value was found to be 1.91 kcal/mol.

Consider KKVTINGVEIKFNNPEEAVKFASELAKRLNLRIEFHGDQIKIE, for which the “folding stability dG” value worked out at 1.88 kcal/mol.

Turning to KKVTINGVEIKFNNPEEAVKFAWELAKRLNLRIEFHGDQIKIE, the “folding stability dG” value was found to be 2.35 kcal/mol.

In the case of KKVTINGVLIKFNNPEEAVKFALELAKRLNLRIEFHGDQIKIE, the “folding stability dG” value worked out at 2.78 kcal/mol.

On to KKVTINGVEIKFNNPEEAVKFALELAKRLNGRIEFHGDQIKIE, for which the “folding stability dG” value came out at 2.42 kcal/mol.

Take KKVTINGVEIKFNNPEEAVKFALELAKRLNMRIEFHGDQIKIE: the “folding stability dG” value amounted to 2.67 kcal/mol.

Consider KKVTINGVEIKFNNPEEAVKFALELAKRLNIRIEFHGDQIKIE, for which the “folding stability dG” value was 2.5 kcal/mol.

With KKVTINGVEIKFNNPEEAVKFALELAKRLNWRIEFHGDQIKIE, the “folding stability dG” value turned out to be 2.51 kcal/mol.

In the case of KKVTINDVEIKFNNPEEAVKFALELAKRLNLRIEFHGDQIKIE, the “folding stability dG” value was determined as 1.89 kcal/mol.

KKVTINHVEIKFNNPEEAVKFALELAKRLNLRIEFHGDQIKIE: the “folding stability dG” value worked out at 1.89 kcal/mol.

For the variant KKVTINGVEIKFNNPEEAVKFALELAKRLNLRIEFHGDQIKIA, the “folding stability dG” value is 2.59 kcal/mol.
